Test results taken from US20060234906A1, “Structure of a complex of retinoblastoma protein bound to e2f, and uses thereof” (priority 2002, published 2006).

Columns and labels:
RbABC = molecular target: T1, RbABC (Homo sapiens, UniProt P06400); experiment: Isothermal titration calorimetry of E2F constructs binding to RbABC; conditions: ITC
T1 construct: His6-RbABC (RESIDUES 380-929); made in house; host or cells: E. coli
T1 sequence (P06400 380-928 limits assumed): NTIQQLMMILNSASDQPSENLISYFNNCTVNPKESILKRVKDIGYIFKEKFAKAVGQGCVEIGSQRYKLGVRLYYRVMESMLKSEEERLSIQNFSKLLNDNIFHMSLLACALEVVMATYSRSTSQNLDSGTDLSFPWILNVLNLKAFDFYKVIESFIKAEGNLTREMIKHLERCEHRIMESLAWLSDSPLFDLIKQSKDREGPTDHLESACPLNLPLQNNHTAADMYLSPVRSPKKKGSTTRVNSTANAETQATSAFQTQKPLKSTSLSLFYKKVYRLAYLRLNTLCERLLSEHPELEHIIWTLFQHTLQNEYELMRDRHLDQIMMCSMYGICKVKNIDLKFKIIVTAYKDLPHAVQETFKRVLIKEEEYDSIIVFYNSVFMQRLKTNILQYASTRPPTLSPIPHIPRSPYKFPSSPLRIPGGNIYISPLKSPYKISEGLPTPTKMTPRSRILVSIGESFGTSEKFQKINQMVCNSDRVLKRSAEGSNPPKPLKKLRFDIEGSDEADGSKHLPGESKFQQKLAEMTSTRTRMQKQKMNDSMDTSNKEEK
Procedure: (B) Summary of dissociation constants obtained by ITC measurements. The quoted errors are those produced by fitting the data to a two-state model. For the interaction of E2F(243-437) to RbAB and RbABC the affinities are too high to measure reliably and we have therefore quoted the upper limits of the dissociation constants.
Binding of the various E2F constructs to RbAB and RbABC was measured by isothermal titration calorimetry using a MicroCal Omega VP-ITC machine (MicroCal Inc., Northampton, USA). The E2F constructs at a concentration between 100-150 μM were titrated into 12-15 μM Rb at a temperature of 22° C. Proteins were dialysed against 50 mM Tris pH 7.6, 100 mM NaCl and 1 mM TCEP. After subtraction of the dilution heats, calorimetric data was analysed using the evaluation software MicroCal Origin v5.0 (MicroCal Software Inc.). For all of the titrations, the stoichiometry of ligand binding to Rb was very close to 1.0. For E2F(243-437) binding to Rb, the binding affinity and the heat change associated with binding were such that we could only establish that binding was tighter than 10 nM.

RbAB = molecular target: T2, RbAB (Homo sapiens, UniProt P06400); experiment: RbAB
T2 construct: residues 372 to 589 of the A domain and 636 to 787 of the B domain; GST (with Prescission protease site) (N, cleaved yes); engineered thrombin site (LVPRGS) at the A-domain end of the A-B linker (C, cleaved yes); engineered thrombin site (LVPRGS) at the B-domain end of the A-B linker (N, cleaved yes); made in house; host or cells: E. coli
T2 sequence (P06400 whole entry, looked up): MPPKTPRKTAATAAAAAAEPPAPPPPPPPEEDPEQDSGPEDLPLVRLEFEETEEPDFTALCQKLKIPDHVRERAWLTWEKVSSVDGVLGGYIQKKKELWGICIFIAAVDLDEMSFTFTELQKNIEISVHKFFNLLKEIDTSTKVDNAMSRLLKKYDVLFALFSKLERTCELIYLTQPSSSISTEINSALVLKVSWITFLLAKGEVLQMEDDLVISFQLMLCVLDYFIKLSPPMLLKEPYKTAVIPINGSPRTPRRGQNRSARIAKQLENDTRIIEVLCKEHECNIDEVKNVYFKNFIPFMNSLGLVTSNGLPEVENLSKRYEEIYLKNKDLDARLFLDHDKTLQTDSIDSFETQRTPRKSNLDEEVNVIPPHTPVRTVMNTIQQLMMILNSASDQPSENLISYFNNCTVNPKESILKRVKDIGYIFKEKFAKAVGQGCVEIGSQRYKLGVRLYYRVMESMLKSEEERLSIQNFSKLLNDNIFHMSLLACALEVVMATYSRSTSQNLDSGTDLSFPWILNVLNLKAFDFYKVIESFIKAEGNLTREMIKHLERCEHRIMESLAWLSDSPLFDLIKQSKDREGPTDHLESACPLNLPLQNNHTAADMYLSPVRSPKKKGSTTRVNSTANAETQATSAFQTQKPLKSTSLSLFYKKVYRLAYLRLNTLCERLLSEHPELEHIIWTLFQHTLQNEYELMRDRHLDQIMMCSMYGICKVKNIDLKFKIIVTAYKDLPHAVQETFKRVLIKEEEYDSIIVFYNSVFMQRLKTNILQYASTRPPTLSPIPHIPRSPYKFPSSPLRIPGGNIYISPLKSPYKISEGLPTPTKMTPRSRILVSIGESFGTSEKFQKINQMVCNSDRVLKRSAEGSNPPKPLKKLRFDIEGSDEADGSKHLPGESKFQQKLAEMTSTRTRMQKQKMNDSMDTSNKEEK
Text: Table printed on a drawing sheet, FIG. 2B
The patent's description of the figure: FIG. 2.
First copying reader's note: Binding constants of E2F fragments to the Rb constructs RbAB and RbABC; the error is printed in the same cell as the value.
Where the first naming reader finds the target: head: RbAB

B1: E2F(243-437): Recombinant human E2F1(243-437) expressed in E. coli (protein, UniProt Q01094 243-437, looked up, fragment)
chain: LAYVTCQDLRSIADPAEQMVMVIKAPPETQLQAVDSSENFQISLKSKQGPIDVFLCPEETVGGISPGKTPSQEVTSEEENRATDSATIVSPPPSSPPSSLTTDPSQSLLSLEQEPLLSRMGSLRAPVDEDRLSPLVAADSLLEHVREDFSGLLPEEFISLSPPHEALDYHFGLEEGEGIRDLFDCDFGDLTPLDF
With B1 the “binds stronger than either of the two shorter E2F fragments” value (RbABC) was “at least 16 fold” and the Kd (RbAB) was less than 10 nM.
